Values joined by “and” are separate entries in the source; they are usually repeats but may differ in a detail not shown here. Equal entries are not always repeated.
Target: HSP90N (human HSP90 isoform that lacks the N-terminal ATPase domain) (human) (UniProt P07900)
Test: AUC; sedimentation velocity of fractions from the S-300 column, 0.3 mg/ml in 100 mM Tris-HCl, 45,000 rpm, 20°C, c(s) distribution (SEDFIT)

stoichiometry N: 2 and 4 and 6
Substance: HSP90N (human HSP90 isoform that lacks the N-terminal ATPase domain) (from UniProt P07900-1 224-732) (natural protein)
